From patent EP4647081A1

Target: cell surface IgG (sIgG) of the sIgG+ B cell line SU-DHL-4
Experiment: cell-based or functional assay

Row | Substance | lowest concentration with significant toxicity on SU-DHL-4 (cell viability) | percent of SU-DHL-4 cells killed above 0.001 µg/ml | concentration showing weak cytotoxicity on SU-DHL-4 (cell viability)
1 | SpA toxin | 0.0001 µg/mL | 99% | 
2 | SpG toxin (from UniProt P00587 26-411) |  |  | 1 µg/mL
